In publication PMC8809517, “Cofactor-independent RNA editing by a synthetic S-type PPR protein”:

T1: GFP-9S library array, motif 4 ND N98G;D124R (synthetic construct, N98G;D124R)
T1 chain: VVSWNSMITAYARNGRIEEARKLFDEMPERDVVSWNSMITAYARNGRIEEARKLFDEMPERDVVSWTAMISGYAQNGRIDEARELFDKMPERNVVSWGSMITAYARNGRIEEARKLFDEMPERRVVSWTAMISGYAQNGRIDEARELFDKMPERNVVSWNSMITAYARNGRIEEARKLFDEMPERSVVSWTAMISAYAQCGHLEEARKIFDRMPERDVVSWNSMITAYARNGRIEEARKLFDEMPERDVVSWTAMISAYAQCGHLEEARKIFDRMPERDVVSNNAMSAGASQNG

T2: GFP-9S library array, motif 4 ND N98R;D124G (synthetic construct, N98R;D124G)
T2 chain: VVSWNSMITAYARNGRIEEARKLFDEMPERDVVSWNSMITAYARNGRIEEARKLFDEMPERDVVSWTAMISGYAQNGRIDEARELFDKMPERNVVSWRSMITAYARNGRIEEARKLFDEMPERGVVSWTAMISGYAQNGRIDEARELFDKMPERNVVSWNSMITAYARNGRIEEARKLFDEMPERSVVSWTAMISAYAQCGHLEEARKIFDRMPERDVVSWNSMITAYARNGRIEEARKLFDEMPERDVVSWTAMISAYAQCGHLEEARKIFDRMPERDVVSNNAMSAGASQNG

T3: GFP-9S library array, motif 4 ND N98G;D124M (synthetic construct, N98G;D124M)
T3 chain: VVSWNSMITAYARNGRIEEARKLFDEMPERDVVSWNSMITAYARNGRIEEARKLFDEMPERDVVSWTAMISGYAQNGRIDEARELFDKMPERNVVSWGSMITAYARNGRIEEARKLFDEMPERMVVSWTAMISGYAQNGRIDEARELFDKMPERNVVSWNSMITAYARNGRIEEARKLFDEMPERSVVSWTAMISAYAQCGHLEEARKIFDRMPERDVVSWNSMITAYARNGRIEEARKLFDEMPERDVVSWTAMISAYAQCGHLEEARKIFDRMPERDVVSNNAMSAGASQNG

T4: GFP-9S library array, motif 4 ND N98S;D124S (synthetic construct, N98S;D124S)
T4 chain: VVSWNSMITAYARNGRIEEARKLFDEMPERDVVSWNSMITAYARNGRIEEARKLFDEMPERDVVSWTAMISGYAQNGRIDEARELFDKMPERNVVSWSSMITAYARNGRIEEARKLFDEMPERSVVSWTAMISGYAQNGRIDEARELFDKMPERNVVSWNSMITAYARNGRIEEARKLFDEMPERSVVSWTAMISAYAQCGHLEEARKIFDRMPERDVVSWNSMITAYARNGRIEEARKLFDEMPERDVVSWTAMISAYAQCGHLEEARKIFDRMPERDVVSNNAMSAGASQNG

T5: GFP-9S library array, motif 4 ND N98G;D124F (synthetic construct, N98G;D124F)
T5 chain: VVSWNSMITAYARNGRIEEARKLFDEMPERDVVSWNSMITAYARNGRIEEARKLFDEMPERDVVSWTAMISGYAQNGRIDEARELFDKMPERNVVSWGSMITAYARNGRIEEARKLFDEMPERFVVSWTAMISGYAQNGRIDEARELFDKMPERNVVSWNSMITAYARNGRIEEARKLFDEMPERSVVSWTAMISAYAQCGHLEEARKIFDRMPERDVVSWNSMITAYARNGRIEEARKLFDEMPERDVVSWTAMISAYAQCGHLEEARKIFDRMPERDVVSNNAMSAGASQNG


Columns and labels:
Assay in all cases: high-throughput RNA pulldown from lysate on Ni-NTA beads; HRP: 50 mM Tris pH 8, 150 mM NaCl, 1 mM beta-mercaptoethanol, 50 ug/ml BSA, 3 ug/ml yeast RNA, 0.5% heparin; ITC and FP: Tris pH 8, 200 mM KCl, 5% glycerol; MST: 50 mM Tris pH 8, 200 mM NaCl, 1 mM DTT, BSA, heparin, 0.05% Tween 20
Settings in all cases: tags: N-terminal His-eGFP
[1] = target: T1, GFP-9S library array, motif 4 ND …
[2] = target: T2, GFP-9S library array, motif 4 ND …
[3] = target: T3, GFP-9S library array, motif 4 ND …
[4] = target: T4, GFP-9S library array, motif 4 ND …
[5] = target: T5, GFP-9S library array, motif 4 ND …

Binder | Kd ([1]; label: 5' Cy5) | Kd ([2]; label: 5' Cy5) | Kd ([3]; label: 5' Cy5) | Kd ([4]; label: 5' Cy5) | Kd ([5]; label: 5' Cy5) | Kd ([1]; label: 5' IRDye 800CW) | Kd ([2]; label: 5' IRDye 800CW) | Kd ([3]; label: 5' IRDye 800CW) | Kd ([4]; label: 5' IRDye 800CW) | Kd ([5]; label: 5' IRDye 800CW)
AUUACACGUGA (ssRNA) [Cy5-rpoA] | 100 nM | 74.7 nM | 57.8 nM | 112 nM | 69.1 nM | – | – | – | – | –
AUUAGACGUGA (ssRNA) [Cy5-rpoA-G] | 115 nM | 102 nM | 66 nM | 251 nM | 95.6 nM | – | – | – | – | –
AUUAAACGUGA (ssRNA) [IR-rpoA-A] | – | – | – | – | – | 158 nM | 191 nM | 94.3 nM | 65.3 nM | 218 nM
AUUAUACGUGA (ssRNA) [IR-rpoA-U] | – | – | – | – | – | 116 nM | 97.3 nM | 149 nM | 69.8 nM | 119 nM
